Data reported in article PMC8953949, “Identifying Function Determining Residues in Neuroimmune Semaphorin 4A” (International Journal of Molecular Sciences, 2022).

Tests used:
Plexin B1 (Homo sapiens) [1] = target: Plexin B1 (Homo sapiens) (UniProt O43157); assay: cell-based ELISA; details: cited from earlier work
Plexin B1 (Homo sapiens) [2] = target: Plexin B1 (Homo sapiens) (UniProt O43157); assay: SPR; details: cited from earlier work
Plexin D1 = Plexin D1 (UniProt Q9Y4D7); assay: SPR; details: cited from earlier work
Sequence of Plexin D1 (Q9Y4D7 47-1271): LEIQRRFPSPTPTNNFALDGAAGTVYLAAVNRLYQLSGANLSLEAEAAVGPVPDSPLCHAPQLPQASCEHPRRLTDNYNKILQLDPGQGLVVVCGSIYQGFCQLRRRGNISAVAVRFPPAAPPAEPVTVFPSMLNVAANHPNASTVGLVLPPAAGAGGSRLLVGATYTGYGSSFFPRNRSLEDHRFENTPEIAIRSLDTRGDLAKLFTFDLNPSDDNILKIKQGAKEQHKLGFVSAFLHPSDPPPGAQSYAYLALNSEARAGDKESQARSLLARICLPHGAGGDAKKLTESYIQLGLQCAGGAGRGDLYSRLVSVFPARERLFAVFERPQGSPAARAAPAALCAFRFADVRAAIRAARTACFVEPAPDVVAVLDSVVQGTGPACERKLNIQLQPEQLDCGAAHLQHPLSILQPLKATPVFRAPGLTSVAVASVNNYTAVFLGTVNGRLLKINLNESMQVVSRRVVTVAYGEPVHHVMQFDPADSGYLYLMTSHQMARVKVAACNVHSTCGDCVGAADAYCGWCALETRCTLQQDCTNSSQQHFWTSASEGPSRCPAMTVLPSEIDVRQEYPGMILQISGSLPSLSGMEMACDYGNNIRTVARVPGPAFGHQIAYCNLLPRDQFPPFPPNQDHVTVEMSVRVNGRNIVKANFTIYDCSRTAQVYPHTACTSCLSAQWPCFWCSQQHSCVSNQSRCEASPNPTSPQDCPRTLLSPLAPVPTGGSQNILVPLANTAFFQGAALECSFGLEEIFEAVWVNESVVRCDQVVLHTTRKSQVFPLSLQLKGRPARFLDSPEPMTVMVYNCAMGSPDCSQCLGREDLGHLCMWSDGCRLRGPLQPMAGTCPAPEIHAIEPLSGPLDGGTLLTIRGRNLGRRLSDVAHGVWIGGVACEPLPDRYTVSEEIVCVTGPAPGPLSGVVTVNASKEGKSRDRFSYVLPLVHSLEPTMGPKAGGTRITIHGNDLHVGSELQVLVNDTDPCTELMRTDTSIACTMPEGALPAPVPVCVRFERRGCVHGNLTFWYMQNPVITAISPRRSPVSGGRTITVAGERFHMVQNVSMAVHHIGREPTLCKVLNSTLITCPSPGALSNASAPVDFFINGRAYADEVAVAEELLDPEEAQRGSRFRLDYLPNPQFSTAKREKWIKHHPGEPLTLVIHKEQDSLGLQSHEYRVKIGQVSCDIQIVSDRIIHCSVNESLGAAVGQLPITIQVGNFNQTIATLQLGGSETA

[3] = target: recombinant human Plexin B1 with a 6X His tag at C-terminus (human) (UniProt O43157); assay: ELISA; direct ligand-receptor (LRA) ELISA; Plexin B1 (8-10 ug/mL) immobilised on Immulon 2 plates overnight, Sema4 in solution in varying doses from 2 ug/mL; detection by HRP-labelled Abs to tags; fit 'One site-specific binding with Hill slope'
NRP1 = NRP1 (UniProt O14786); assay: ELISA; LRA ELISA of Sema4A and NRP1 (Supplemental Figure S2)
Sequence of NRP1 (O14786 22-856): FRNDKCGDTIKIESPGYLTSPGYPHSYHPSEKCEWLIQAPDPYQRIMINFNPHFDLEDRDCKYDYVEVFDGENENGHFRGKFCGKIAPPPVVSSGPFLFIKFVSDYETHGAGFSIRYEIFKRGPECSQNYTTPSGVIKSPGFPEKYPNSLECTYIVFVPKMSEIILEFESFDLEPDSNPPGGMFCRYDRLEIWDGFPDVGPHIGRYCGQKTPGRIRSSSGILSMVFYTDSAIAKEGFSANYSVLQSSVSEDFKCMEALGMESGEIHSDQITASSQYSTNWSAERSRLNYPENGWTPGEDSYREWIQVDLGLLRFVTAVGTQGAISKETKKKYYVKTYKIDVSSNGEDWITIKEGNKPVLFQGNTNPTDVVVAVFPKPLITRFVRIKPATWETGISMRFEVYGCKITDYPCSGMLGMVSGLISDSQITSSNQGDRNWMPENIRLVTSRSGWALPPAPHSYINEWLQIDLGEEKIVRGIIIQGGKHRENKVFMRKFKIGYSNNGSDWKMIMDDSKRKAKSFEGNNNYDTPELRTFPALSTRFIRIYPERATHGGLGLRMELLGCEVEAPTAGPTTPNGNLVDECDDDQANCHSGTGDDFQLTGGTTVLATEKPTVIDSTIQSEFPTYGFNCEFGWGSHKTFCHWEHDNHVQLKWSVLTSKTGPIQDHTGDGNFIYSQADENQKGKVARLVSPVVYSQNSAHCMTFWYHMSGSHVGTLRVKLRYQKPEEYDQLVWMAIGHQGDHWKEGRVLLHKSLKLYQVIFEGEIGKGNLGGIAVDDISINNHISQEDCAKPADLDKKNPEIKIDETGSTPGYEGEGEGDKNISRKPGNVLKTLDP

[4] = target: T1, recombinant human Plexin B1 with a 6X His tag at C-terminus (human, UniProt O43157 20-1490); assay: ELISA; reverse LRA ELISA; Sema4 (2 ug/mL) coated on Immulon 2 plates overnight at 4 C in 0.1 M sodium carbonate-bicarbonate buffer, rhPlexin B1 in solution in varying doses from 10 ug/mL; details: both partners purified
T1 construct: Plexin B1, human; Only the molecular weight (66 kDa) is printed; it must be a fragment of the extracellular part, limits unknown; also called rhPlexin B1; rhPlexin B1-His; source: bought: GenScript; not shown: His6, C-terminal, kept
T1 sequence (looked up): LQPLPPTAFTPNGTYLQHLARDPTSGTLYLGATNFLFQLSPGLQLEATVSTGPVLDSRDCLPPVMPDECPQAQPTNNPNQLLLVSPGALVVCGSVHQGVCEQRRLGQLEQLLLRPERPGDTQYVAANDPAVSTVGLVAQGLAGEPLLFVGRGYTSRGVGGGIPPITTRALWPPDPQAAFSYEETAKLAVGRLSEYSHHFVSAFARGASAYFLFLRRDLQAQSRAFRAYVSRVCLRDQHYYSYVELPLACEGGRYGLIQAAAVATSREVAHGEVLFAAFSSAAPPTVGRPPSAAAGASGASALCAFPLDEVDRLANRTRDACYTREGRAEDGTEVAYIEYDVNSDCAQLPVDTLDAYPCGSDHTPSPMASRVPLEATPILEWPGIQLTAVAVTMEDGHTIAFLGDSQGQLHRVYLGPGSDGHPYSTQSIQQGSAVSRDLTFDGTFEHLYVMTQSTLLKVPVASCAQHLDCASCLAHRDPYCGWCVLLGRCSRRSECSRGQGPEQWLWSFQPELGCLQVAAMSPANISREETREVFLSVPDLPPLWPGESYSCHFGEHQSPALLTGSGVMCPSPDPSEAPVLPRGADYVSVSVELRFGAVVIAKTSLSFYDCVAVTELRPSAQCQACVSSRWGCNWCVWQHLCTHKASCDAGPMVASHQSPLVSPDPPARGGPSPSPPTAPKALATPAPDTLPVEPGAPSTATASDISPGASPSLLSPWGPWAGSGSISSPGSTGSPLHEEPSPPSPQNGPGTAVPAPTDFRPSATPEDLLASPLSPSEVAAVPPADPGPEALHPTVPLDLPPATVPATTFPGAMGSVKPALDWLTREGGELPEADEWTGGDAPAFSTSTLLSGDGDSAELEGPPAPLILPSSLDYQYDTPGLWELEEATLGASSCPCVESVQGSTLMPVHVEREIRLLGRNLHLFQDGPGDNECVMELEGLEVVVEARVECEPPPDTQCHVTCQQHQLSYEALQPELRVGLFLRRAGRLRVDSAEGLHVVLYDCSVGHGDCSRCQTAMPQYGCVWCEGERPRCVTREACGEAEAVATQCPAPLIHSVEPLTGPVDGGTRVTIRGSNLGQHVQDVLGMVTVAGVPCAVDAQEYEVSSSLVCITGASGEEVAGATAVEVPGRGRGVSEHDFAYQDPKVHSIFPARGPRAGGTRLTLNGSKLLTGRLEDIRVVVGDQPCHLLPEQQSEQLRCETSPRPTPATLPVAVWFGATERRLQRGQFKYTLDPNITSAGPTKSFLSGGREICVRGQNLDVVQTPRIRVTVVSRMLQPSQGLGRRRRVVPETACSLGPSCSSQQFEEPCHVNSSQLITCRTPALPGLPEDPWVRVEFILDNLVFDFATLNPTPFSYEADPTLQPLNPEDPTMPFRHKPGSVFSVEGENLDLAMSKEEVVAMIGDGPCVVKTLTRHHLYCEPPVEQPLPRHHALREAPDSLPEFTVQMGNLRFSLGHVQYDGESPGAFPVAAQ

[5] = target: T1, recombinant human Plexin B1 with a 6X …; assay: ELISA; direct LRA ELISA; Plexin B1-His (10 ug/mL) captured on HIS-Select nickel-coated microplates in Tris buffer overnight, Sema4 in solution in varying doses from 2 ug/mL; details: both partners purified
[6] = target: soluble recombinant human Sema4A (GST- or Fc-tagged, as used in Figures 2 and 3) (human) (UniProt Q9H3S1); assay: ELISA; reverse LRA ELISA; Sema4 (2 ug/mL) coated on Immulon 2 plates overnight at 4 C in 0.1 M sodium carbonate-bicarbonate buffer, rhPlexin B1 in solution in varying doses from 10 ug/mL

Molecule: Sema4D (from UniProt Q92854)
- Kd (Plexin B1 (Homo sapiens) [1]): 0.0009 µM

Molecule: Sema4D Sema domain (from UniProt Q92854)
- Kd (Plexin B1 (Homo sapiens) [2]): 5500 µM

Molecule: Sema4A (from UniProt Q9H3S1)
- Kd (Plexin D1): 0.00872 µM

Molecule: soluble recombinant human Sema4A (GST- or Fc-tagged, as used in Figures 2 and 3) (from UniProt Q9H3S1 33-683) (ligand)
- Kd [3]: 0.0199 µM
- Kd (NRP1): 0.0283 µM

B1: WT rhSema4A-Fc (GenScript) (Fc fusion, human, UniProt Q9H3S1 33-683, looked up)
chain: GGGQGPMPRVRYYAGDERRALSFFHQKGLQDFDTLLLSGDGNTLYVGAREAILALDIQDPGVPRLKNMIPWPASDRKKSECAFKKKSNETQCFNFIRVLVSYNVTHLYTCGTFAFSPACTFIELQDSYLLPISEDKVMEGKGQSPFDPAHKHTAVLVDGMLYSGTMNNFLGSEPILMRTLGSQPVLKTDNFLRWLHHDASFVAAIPSTQVVYFFFEETASEFDFFERLHTSRVARVCKNDVGGEKLLQKKWTTFLKAQLLCTQPGQLPFNVIRHAVLLPADSPTAPHIYAVFTSQWQVGGTRSSAVCAFSLLDIERVFKGKYKELNKETSRWTTYRGPETNPRPGSCSVGPSSDKALTFMKDHFLMDEQVVGTPLLVKSGVEYTRLAVETAQGLDGHSHLVMYLGTTTGSLHKAVVSGDSSAHLVEEIQLFPDPEPVRNLQLAPTQGAVFVGFSGGVWRVPRANCSVYESCVDCVLARDPHCAWDPESRTCCLLSAPNLNSWKQDMERGNPEWACASGPMSRSLRPQSRPQIIKEVLAVPNSILELPCPHLSALASYYWSHGPAAVPEASSTVYNGSLLLIVQDGVGGLYQCWATENGFSYPVISYWVDSQDQTLALDPELAGIPREHVKVPLTRVSGGAALAAQQSYWPH
notes: Semaphorin 4A, human; also called WT Sema4A; WT Sema4A-Fc; source: bought: GenScript
- Kd [4]: 0.0025 µM
- Kd [5]: 0.00255 µM

B2: M198A rhSema4A-Fc (Fc fusion, human, UniProt Q9H3S1 33-683, looked up)
chain: GGGQGPMPRVRYYAGDERRALSFFHQKGLQDFDTLLLSGDGNTLYVGAREAILALDIQDPGVPRLKNMIPWPASDRKKSECAFKKKSNETQCFNFIRVLVSYNVTHLYTCGTFAFSPACTFIELQDSYLLPISEDKVMEGKGQSPFDPAHKHTAVLVDGMLYSGTANNFLGSEPILMRTLGSQPVLKTDNFLRWLHHDASFVAAIPSTQVVYFFFEETASEFDFFERLHTSRVARVCKNDVGGEKLLQKKWTTFLKAQLLCTQPGQLPFNVIRHAVLLPADSPTAPHIYAVFTSQWQVGGTRSSAVCAFSLLDIERVFKGKYKELNKETSRWTTYRGPETNPRPGSCSVGPSSDKALTFMKDHFLMDEQVVGTPLLVKSGVEYTRLAVETAQGLDGHSHLVMYLGTTTGSLHKAVVSGDSSAHLVEEIQLFPDPEPVRNLQLAPTQGAVFVGFSGGVWRVPRANCSVYESCVDCVLARDPHCAWDPESRTCCLLSAPNLNSWKQDMERGNPEWACASGPMSRSLRPQSRPQIIKEVLAVPNSILELPCPHLSALASYYWSHGPAAVPEASSTVYNGSLLLIVQDGVGGLYQCWATENGFSYPVISYWVDSQDQTLALDPELAGIPREHVKVPLTRVSGGAALAAQQSYWPH
notes: Semaphorin 4A, human; as the WT Sema4A-Fc of GenScript with M198A; Similar molecular size as the WT Sema4A-Fc protein prepared similarly; also called Sema4A-M198A; Mu M198A Sema4A; source: prepared by GenScript
- Kd [4]: 0.0017 µM
- Kd [5]: 0.00419 µM

B3: F223A rhSema4A-Fc (Fc fusion, human, UniProt Q9H3S1 33-683, looked up)
chain: GGGQGPMPRVRYYAGDERRALSFFHQKGLQDFDTLLLSGDGNTLYVGAREAILALDIQDPGVPRLKNMIPWPASDRKKSECAFKKKSNETQCFNFIRVLVSYNVTHLYTCGTFAFSPACTFIELQDSYLLPISEDKVMEGKGQSPFDPAHKHTAVLVDGMLYSGTMNNFLGSEPILMRTLGSQPVLKTDNALRWLHHDASFVAAIPSTQVVYFFFEETASEFDFFERLHTSRVARVCKNDVGGEKLLQKKWTTFLKAQLLCTQPGQLPFNVIRHAVLLPADSPTAPHIYAVFTSQWQVGGTRSSAVCAFSLLDIERVFKGKYKELNKETSRWTTYRGPETNPRPGSCSVGPSSDKALTFMKDHFLMDEQVVGTPLLVKSGVEYTRLAVETAQGLDGHSHLVMYLGTTTGSLHKAVVSGDSSAHLVEEIQLFPDPEPVRNLQLAPTQGAVFVGFSGGVWRVPRANCSVYESCVDCVLARDPHCAWDPESRTCCLLSAPNLNSWKQDMERGNPEWACASGPMSRSLRPQSRPQIIKEVLAVPNSILELPCPHLSALASYYWSHGPAAVPEASSTVYNGSLLLIVQDGVGGLYQCWATENGFSYPVISYWVDSQDQTLALDPELAGIPREHVKVPLTRVSGGAALAAQQSYWPH
notes: Semaphorin 4A, human; as the WT Sema4A-Fc of GenScript with F223A; Similar molecular size as the WT Sema4A-Fc protein prepared similarly; also called Sema4A-F223A; Mu F223A Sema4A; source: prepared by GenScript
- Kd [4]: 0.0035 µM
- Kd [5]: 0.00282 µM

B4: recombinant human Plexin B1 with a 6X His tag at C-terminus (receptor)
chain: LQPLPPTAFTPNGTYLQHLARDPTSGTLYLGATNFLFQLSPGLQLEATVSTGPVLDSRDCLPPVMPDECPQAQPTNNPNQLLLVSPGALVVCGSVHQGVCEQRRLGQLEQLLLRPERPGDTQYVAANDPAVSTVGLVAQGLAGEPLLFVGRGYTSRGVGGGIPPITTRALWPPDPQAAFSYEETAKLAVGRLSEYSHHFVSAFARGASAYFLFLRRDLQAQSRAFRAYVSRVCLRDQHYYSYVELPLACEGGRYGLIQAAAVATSREVAHGEVLFAAFSSAAPPTVGRPPSAAAGASGASALCAFPLDEVDRLANRTRDACYTREGRAEDGTEVAYIEYDVNSDCAQLPVDTLDAYPCGSDHTPSPMASRVPLEATPILEWPGIQLTAVAVTMEDGHTIAFLGDSQGQLHRVYLGPGSDGHPYSTQSIQQGSAVSRDLTFDGTFEHLYVMTQSTLLKVPVASCAQHLDCASCLAHRDPYCGWCVLLGRCSRRSECSRGQGPEQWLWSFQPELGCLQVAAMSPANISREETREVFLSVPDLPPLWPGESYSCHFGEHQSPALLTGSGVMCPSPDPSEAPVLPRGADYVSVSVELRFGAVVIAKTSLSFYDCVAVTELRPSAQCQACVSSRWGCNWCVWQHLCTHKASCDAGPMVASHQSPLVSPDPPARGGPSPSPPTAPKALATPAPDTLPVEPGAPSTATASDISPGASPSLLSPWGPWAGSGSISSPGSTGSPLHEEPSPPSPQNGPGTAVPAPTDFRPSATPEDLLASPLSPSEVAAVPPADPGPEALHPTVPLDLPPATVPATTFPGAMGSVKPALDWLTREGGELPEADEWTGGDAPAFSTSTLLSGDGDSAELEGPPAPLILPSSLDYQYDTPGLWELEEATLGASSCPCVESVQGSTLMPVHVEREIRLLGRNLHLFQDGPGDNECVMELEGLEVVVEARVECEPPPDTQCHVTCQQHQLSYEALQPELRVGLFLRRAGRLRVDSAEGLHVVLYDCSVGHGDCSRCQTAMPQYGCVWCEGERPRCVTREACGEAEAVATQCPAPLIHSVEPLTGPVDGGTRVTIRGSNLGQHVQDVLGMVTVAGVPCAVDAQEYEVSSSLVCITGASGEEVAGATAVEVPGRGRGVSEHDFAYQDPKVHSIFPARGPRAGGTRLTLNGSKLLTGRLEDIRVVVGDQPCHLLPEQQSEQLRCETSPRPTPATLPVAVWFGATERRLQRGQFKYTLDPNITSAGPTKSFLSGGREICVRGQNLDVVQTPRIRVTVVSRMLQPSQGLGRRRRVVPETACSLGPSCSSQQFEEPCHVNSSQLITCRTPALPGLPEDPWVRVEFILDNLVFDFATLNPTPFSYEADPTLQPLNPEDPTMPFRHKPGSVFSVEGENLDLAMSKEEVVAMIGDGPCVVKTLTRHHLYCEPPVEQPLPRHHALREAPDSLPEFTVQMGNLRFSLGHVQYDGESPGAFPVAAQ
- Kd [6]: 0.0354 µM
